The source of these data is publication PMC12221982, “The structure of the complete extracellular bacterial flagellum reveals the mechanism of flagellin incorporation” (Nature Microbiology, 2025).

Series [1] concerns the molecule itself. As to the kind of experiment: cryo-EM structure; single-particle cryo-EM of flagellar hook tips on C. jejuni ΔflhG ΔflaAB minicells (no filament); cap-HFJ map at 6.5 Å; model of 11 FlgK, 11 FlgL and 5 FliD fitted as rigid bodies and refined.
Series [2] deals with the molecule itself. Put plainly: cryo-EM structure; single-particle cryo-EM of the same purified short flagella of S. enterica EM16009; hook-filament junction map at 2.9 Å; model of 13 FlgE, 11 FlgK, 11 FlgL and 14 FliC.
In series [3] the target is T1, FliC flagellin (S. enterica) (S. enterica subsp. enterica serovar …, UniProt P06179 1-495).
T1 construct: FliC, phase 1 flagellin of Salmonella enterica subsp. enterica serovar Typhimurium LT2; domains D0 to D3; […]; There are 17 copies in the cap model and 14 in the HFJ model; also called filament; source: S. enterica strain EM16009, chromosomal fliC under the inducible PtetA promoter (30 min AnTc); part of purified short flagella
T1 sequence (P06179 whole entry): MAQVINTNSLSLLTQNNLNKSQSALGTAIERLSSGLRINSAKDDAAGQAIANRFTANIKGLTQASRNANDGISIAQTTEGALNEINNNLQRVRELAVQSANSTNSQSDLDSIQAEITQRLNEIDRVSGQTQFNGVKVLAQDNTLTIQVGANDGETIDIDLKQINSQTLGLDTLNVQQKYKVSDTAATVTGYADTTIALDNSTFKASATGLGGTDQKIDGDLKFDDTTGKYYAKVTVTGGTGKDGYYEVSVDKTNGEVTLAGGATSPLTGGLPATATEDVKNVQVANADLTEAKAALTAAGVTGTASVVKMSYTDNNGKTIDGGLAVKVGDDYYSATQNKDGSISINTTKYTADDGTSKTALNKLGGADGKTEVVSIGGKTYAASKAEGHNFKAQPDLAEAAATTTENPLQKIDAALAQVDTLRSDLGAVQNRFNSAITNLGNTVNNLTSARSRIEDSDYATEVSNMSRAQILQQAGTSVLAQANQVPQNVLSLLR
Put plainly: cryo-EM structure; single-particle cryo-EM of purified short flagella of S. enterica EM16009 (buffer B: 10 mM Tris pH 8, 5 mM EDTA, 0.01% DDM); cap-filament map at 3.7 Å; model of 5 FliD and 17 FliC. As to conditions: both partners purified.

Series [4] deals with the molecule itself. The description is as above.
In series [5] the target is T1, FliC flagellin (S. enterica). As to the kind of experiment: cryo-EM structure; single-particle cryo-EM of the same purified short flagella of S. enterica EM16009; hook-filament junction map at 2.9 Å; model of 13 FlgE, 11 FlgK, 11 FlgL and 14 FliC. The note with it: both partners purified.

B1: FlgK hook-filament junction protein (C. jejuni) (natural protein)
chain: MGIFGTLYTGVTGLKASEVQIATTGNNISNANATFYTRQRVVQTTNGYITTGGVQVGTGTAVESIVRLHDEYSYYKLKGASTQLEYTKYMASTLQEIAQRFPDLQNTGILQDLENYNKAWNDFASNPNENATKIALVKASQTLTESVNNTFATLDKIQKKVNDDIKNTVDEINRIGEEIATINKQIYGQEALPTEHANELRDRRDELELTLSKLVSAVASKNEINQDNRLDTTITDPGHQYNLSIEGFSIVDGINFHPLKLDYDDKNKSYSIYYETPDEKVRDLTAKISGGQLGAQLDLRGRNYSKSEGKYEDGIIQGYMDSLDTFAKTMINETNNLYASSAKSSVTSDYLSGLKGDIPLVNYDRTIQPGSFDIVIYDDKGDKKLTKTITIDVNTTMNDIMRQINANTDDNDNKNSNDDVDDHINASFSYDAKTGDGLFQINAKSGFKVAIEDKGTNFAGAFSIGGFFSGTDASDMKVKDSILNDPSTVRASSNGVDSGNDMANKIIQLQYKKVNFYNEDGTIDNLTMEEYYRKLTGKIASDGENNNVVNSSNETLYNSVYSEYQSKSGVNTNEELAALIQYQSSYGAAAKIVSTVDQMLDTLLGLKS
notes: model built from an AlphaFold model; Eleven subunits form the proximal layer of the HFJ; also called C. jejuni FlgK; source: endogenous, C. jejuni ΔflhG ΔflaAB minicells, imaged in situ
As a reminder, the stoichiometry N is the number of molecules, sites or subunits per partner or assembly. For B1, the “stoichiometry N” value in series [1] was 11 subunits.

B2: FlgK hook-filament junction protein (S. enterica) (natural protein)
chain: MSSLINHAMSGLNAAQAALNTVSNNINNYNVAGYTRQTTILAQANSTLGAGGWIGNGVYVSGVQREYDAFITNQLRGAQNQSSGLTTRYEQMSKIDNLLADKSSSLSGSLQSFFTSLQTLVSNAEDPAARQALIGKAEGLVNQFKTTDQYLRDQDKQVNIAIGSSVAQINNYAKQIANLNDQISRMTGVGAGASPNDLLDQRDQLVSELNKIVGVEVSVQDGGTYNLTMANGYTLVQGSTARQLAAVPSSADPTRTTVAYVDEAAGNIEIPEKLLNTGSLGGLLTFRSQDLDQTRNTLGQLALAFADAFNAQHTKGYDADGNKGKDFFSIGSPVVYSNSNNADKTVSLTAKVVDSTKVQATDYKIVFDGTDWQVTRTADNTTFTATKDADGKLEIDGLKVTVGTGAQKNDSFLLKPVSNAIVDMNVKVTNEAEIAMASESKLDPDVDTGDSDNRNGQALLDLQNSNVVGGNKTFNDAYATLVSDVGNKTSTLKTSSTTQANVVKQLYKQQQSVSGVNLDEEYGNLQRYQQYYLANAQVLQTANALFDALLNIR
notes: FlgK, hook-filament junction protein (proximal layer) of Salmonella enterica subsp. enterica serovar Typhimurium LT2; […]; Eleven subunits form the proximal layer of the hook-filament junction; also called HFJ; FlgKL; source: endogenous, S. enterica strain EM16009; part of purified short flagella
Consider B2, for which the “stoichiometry N” value in series [2] amounted to 11 subunits.

B3: FliD filament cap protein (S. enterica) (natural protein)
chain: MASISSLGVGSNLPLDQLLTDLTKNEKGRLTPITKQQSANSAKLTAYGTLKSALEKFQTANTALNKADLFKSTVASSTTEDLKVSTTAGAAAGTYKINVTQLAAAQSLATKTTFATTKEQLGDTSVTSRTIKIEQPGRKEPLEIKLDKGDTSMEAIRDAINDADSGIAASIVKVKENEFQLVLTANSGTDNTMKITVEGDTKLNDLLAYDSTTNTGNMQELVKAENAKLNVNGIDIERQSNTVTDAPQGITLTLTKKVTDATVTVTKDDTKAKEAIKSWVDAYNSLVDTFSSLTKYTAVEPGEEASDKNGALLGDSVVRTIQTGIRAQFANSGSNSAFKTMAEIGITQDGTSGKLKIDDDKLTKVLKDNTAAARELLVGDGKETGITTKIATEVKSYLADDGIIDNAQDNVNATLKSLTKQYLSVSNSIDETVARYKAQFTQLDTMMSKLNNTSSYLTQQFTAMNKS
notes: FliD, flagellar filament cap protein of Salmonella enterica subsp. enterica serovar Typhimurium LT2; domains D0 to D3; […]; Five subunits form the pentameric cap at the distal end of the filament; also called FliD cap; filament cap complex; source: endogenous, S. enterica strain EM16009; part of purified short flagella (DDM lysis, ultracentrifugation)
As for B3, the binding result in series [3] was “binds”. Also, the “stoichiometry N” value in series [4] came to 5 subunits.

B4: FliD filament cap protein (C. jejuni) (natural protein)
chain: MAFGSLSSLGFGSGVLTQDTIDKLKEAEQKARIDPYTKKIEENTTKQKDLTEIKTKLLSFQTAVSSLADATVFAKRKVVGSISDNPPASLTVNSGVALQSMNINVTQLAQKDVYQSKGLANDGGFVNAQLNGTADLTFFSNGKEYTVTVDKNTTYRDLADKINEASGGEIVAKIVNTGEKGTPYRLTLTSKETGEDSAISFYAGKKDSNGKYQKDINAEKIFDDLGWGLDVSASIDPDKDKKGYGIKDASLHIQTAQNAEFTLDGIKMFRSSNTVTDLGVGMTLTLNKTGEINFDVQQDFEGVTKAMQDLVDAYNDLVTNLNAATDYNSETGTKGTLQGISEVNSIRSSILADLFDSQVVDGTTEDANGNKVNTKVMLSMQDFGLSLNDAGTLSFDSSKFEQKVKEDPDSTESFFSNITKYEDINHTGEVIKTGSLSKYLNSNGGNTNGLEFKPGDFTIVFNNQTYDLSKNSDGTNFKLTGKTEEELLQNLANHINSKGIEGLKVKVESYNQNNVTGFRLNFSGDGSSDFSIKGDANILKELGLSDVNITSKPIEGKGIFSKLKATLQEMTGKDGSITKYDESLTNDIKSLNTSKDSTQAMIDTRYDTMANQWLQYESILNKLNQQLNTVTNMINAANNSNN
notes: has an additional domain D4; model built from an AlphaFold model; Five subunits form the pentameric cap on the HFJ; also called C. jejuni FliD; FliD cap of C. jejuni; source: endogenous, C. jejuni ΔflhG ΔflaAB minicells, imaged in situ
Regarding B4, the “stoichiometry N” value in series [1] worked out at 5 subunits.

B5: FlgE hook protein (S. enterica) (natural protein)
chain: MSFSQAVSGLNAAATNLDVIGNNIANSATYGFKSGTASFADMFAGSKVGLGVKVAGITQDFTDGTTTNTGRGLDVAISQNGFFRLVDSNGSVFYSRNGQFKLDENRNLVNMQGMQLTGYPATGTPPTIQQGANPAPITIPNTLMAAKSTTTASMQINLNSTDPVPSKTPFSVSDADSYNKKGTVTVYDSQGNAHDMNVYFVKTKDNEWAVYTHDSSDPAATAPTTASTTLKFNENGILESGGTVNITTGTINGATAATFSLSFLNSMQQNTGANNIVATNQNGYKPGDLVSYQINNDGTVVGNYSNEQEQVLGQIVLANFANNEGLASQGDNVWAATQASGVALLGTAGSGNFGKLTNGALEASNVDLSKELVNMIVAQRNYQSNAQTIKTQDQILNTLVNLR
notes: FlgE, flagellar hook protein of Salmonella enterica subsp. enterica serovar Typhimurium LT2; […]; There are 13 copies in the HFJ model; source: endogenous, S. enterica strain EM16009; part of purified short flagella
With B5, the binding result in series [2] is recorded as “binds”.

B6: FlgL hook-filament junction protein (C. jejuni) (natural protein)
chain: MRITNKLNFTNSVNNSMGGQSALYQISQQLASGLKIQNSYEDASTYIDNTRLEYEIKTLEQVKESTSRAQEMTQNSMKALQDMVKLLEDFKVKVTQAASDSNSQTSREAIAKELERIKESIVQLANTSVNGQYLFAGSQVANKPFDSNGNYYGDKNNINVVTGAGTESPYNIPGWDLFFKADGDYKKQISTNVSFTDNRWDLNKDPDKTKYLTGDSKWQQLIGQGYVKDNSLDADKDFEYDDSKLDFPPTTLYVQGTKPDGTSFKSAVLVKPEDTLEDVMENIGALYGNTPNNKVVEVSMNDSGQIQITDLKQGNNKLDFHAVAFTPQADTKDELKNIIEAANQEGISMNEVTNRVMQAATAAPSNGDITKLNNPVTVTINNQQFTIDLKQTDFIKSKMTDTDGNAANGADYDNVYFEKNGNTVYGNVSQVIKGSNAYATDSTKLSEVMAGDSLNGTTLNLKVNSKGGNSYDVTINLQTSTVSYPDPNNPGQTISFPIMHTNPATGNSGVVTGSNDITYGQINDIIGMFAADKIPTTTIQANNGQINNADYTQIQQLMKDSQATVDVSMDYKGRISVTDKLSSGTNIEISLSDSQSGQFPAPPFTTTSTVQNGPNFSFSANNSLTIDEPNVDIIKDLDSMIDAVLKGNMRADSESENPRNTGMQGALERLDHLADHVSKLNTTMGAYHNTIEGVNTRTSFLSVNVQSIKSNVIDVDYGEAMMNLMQVQLAYQASLKASTTISQLSLLNYM
notes: has a bulky D2 domain; model built from an AlphaFold model; Eleven subunits form the distal layer of the HFJ; also called C. jejuni FlgL; source: endogenous, C. jejuni ΔflhG ΔflaAB minicells, imaged in situ
As to B6, in series [1], the “stoichiometry N” value was 11 subunits.

B7: FlgL hook-filament junction protein (S. enterica) (natural protein)
chain: MRISTQMMYEQNMSGITNSQAEWMKLGEQMSTGKRVTNPSDDPIAASQAVVLSQAQAQNSQYALARTFATQKVSLEESVLSQVTTAIQTAQEKIVYAGNGTLSDDDRASLATDLQGIRDQLMNLANSTDGNGRYIFAGYKTEAAPFDQATGGYHGGEKSVTQQVDSARTMVIGHTGAQIFNSITSNAVPEPDGSDSEKNLFVMLDTAIAALKTPVEGNNVEKEKAAAAIDKTNRGLKNSLNNVLTVRAELGTQLSELSTLDSLGSDRALGQKLQMSNLVDVDWNSVISSYVMQQAALQASYKTFTDMQGMSLFQLNR
notes: FlgL, hook-filament junction protein (distal layer) of Salmonella enterica subsp. enterica serovar Typhimurium LT2; […]; Eleven subunits form the distal layer of the hook-filament junction; also called HFJ; FlgKL; source: endogenous, S. enterica strain EM16009; part of purified short flagella
As to B7, the binding result in series [5] was “binds”. Further, the “stoichiometry N” value in series [2] amounted to 11 subunits.
